The text below walks through data of patent publication US10278923B2, “Oral dosing of GLP-1 compounds” (Novo Nordisk A/S, priority 2013, dated 2019).

Where two headings read alike, the source gives them in different places.

For data set [1] the following is noted: dog, in vivo. The protocol: The other monoclonal antibody, specific for an N-terminal epitope, was biotinylated. […] Illumination of the complex releases singlet oxygen atoms from the donor beads which channels into the acceptor beads and trigger chemiluminescence which was measured in the EnVision plate reader.
The LC-MS system consisted of Waters Acquity UPLC system (Waters) consisting of an autosampler (Model Acq-SM), pump (Model Acq-BSM), column oven (Model Acq-SM), detector (Model Acq-TUV) and LTQ Orbitrap XL (Thermo Fisher). RP-HPLC separation was achieved using a linear gradient of acetonitrile in 0.1% formic acid using CSH C18 column (Waters, 1×150 mm) with a flow rate of 0.1 ml/min at 45° C.
A pharmacokinetic study was carried out to determine plasma half-life of the GLP-1 peptides after p.o. administration to Beagle dogs.
Dogs were administered p.o. GLP-1 peptide 1 in a SNAC formulation. Blood samples were drawn at predefined time points after dosing, and samples were analysed for concentration of the GLP-1 peptide. […] The variability in plasma concentration of the GLP-1 peptide was determined as % CV for AUC. […]
Blood samples were drawn at predefined time points after dosing, and samples were analysed for concentration of the GLP-1 peptide. […] The variability in plasma concentration of the GLP-1 peptide was determined as % CV for AUC. […]

Data set [2] in a line: Pharmacokinetic study: variability in plasma concentration (% CV) after p.o. administration of SNAC tablet to humans. It is filed as in vivo. Particulars: for % CV AUC / % CV Cmax: p.o. tablet with 300 mg SNAC. The protocol: The variability in plasma concentration was determined as % CV for both Cmax and AUC.
Setting [3] is: 10 mg, single dose, healthy subjects.
The mark [4] stands for this setting: 10 mg/day for 70 days, healthy subjects, Day 70.
Setting [5] is: 20 mg/day for 70 days, healthy subjects, Day 69.
Where [6] appears, read: 40 mg/day for 70 days, healthy subjects, Day 69.
Setting [7] is: 40 mg/day for 70 days, subjects with type 2 diabetes, Day 69.

For “N-epsilon26-[2-(2-{2-[2-(2-{2-[(S)-4-Carboxy-4-(17-carboxyheptadecanoyl-amino)butyrylamino]ethoxy}ethoxy)acetylamino]ethoxy}ethoxy)acetyl][Aib8,Arg34]GLP-1-(7-37) [GLP-1 peptide 1]”, the “variability in plasma exposure, daily dosing compared to single dose” value in data set [1] was “significantly reduced”; in data set [2] (humans, 10, 20 or 40 mg daily for 70 days vs single dose of 10 mg) it was “significantly reduced”. Also, the “% CV AUC” value in data set [1] (po, 300 mg) is 67%; in data set [2] (setting [3]), 105%; in data set [2] (setting [4]), 73% (Day 70); in data set [2] (setting [5]) it was 67% (Day 69); in data set [2] (setting [6]), 78% (Day 69); in data set [2] (setting [7]), 55% (Day 69). Moreover, the “% CV Cmax” value is 113% in data set [2] (setting [3]); 74% (Day 70) in data set [2] (setting [4]); 62% (Day 69) in data set [2] (setting [5]); 80% (Day 69) in data set [2] (setting [6]); 54% (Day 69) in data set [2] (setting [7]).
